Measurements: the DeepSol protein solubility set

assay: soluble on expression in E. coli; label from the status in PepcDB or PDB records

Sequence | soluble on expression in E. coli
MTIADCDPQISFEKEVYFPGDEVKGRAWVSTTKNLKATSVEITFSGKTITAHNGKKIIKDKKCKKGEETYVEMKHEVWTPEDTENTFPSGDYEWNFSFELPKDCPPSFEGKYGFIRYSVLLHIAVPNGKPINVERAVTVSSMVDLNAVNAHEPAKIHVDNVAEYCHCLPCLPTRGNVIYTLQSPKCGYVAGENVIVSGQIENGTSKPMKIITAKLTRRITYREELKAKANAKKKADGADGFKSKLEEQILETKIERCNVPARSSKDFAFSFDIPAVVSTIRSSRLLAVEYFVTVWGDTGTCNRGGVAALNIIVGNVPLFLGSSSLPPRKFVDGEDAQSWTVDMKPVFTYQVPYYGH | not soluble
MTIEEIARIVEGEILCGNKDLNIERAVATDLMSDVLAFAEPNVLLITGLHSPQAVRTAMVVGIPAVLFVRKRDIPETIVNFAKECNITVLATNLSMFETCGRLYMNGLKPVRRAIE | not soluble
MTILPVKKKREKDSQQRSVSTIGSSAENSRQQLSGPSCSSSASSSSSAAKRIRSQEDGPPSKRWVLSASSTSSTNKSPIPSSSPVLPPPQPEIEPNRSQSPGNADYNSDDEYEMQNIRDDEIETEFSNRLAARGLIIKEMVGDGACMFRSIAEQIYGDQEMHGQIRRLCMDYMSNNRDHFKEFITENFENYIQRKREENVHGNHVELQAISEIKKKSNYILKNSLHSINSEPINVLLPRPEPEATALTDGSASTSNAAPPPSTVPIQQNPPLRLSYHRAVHYNAILAPNIPTIGIGLGLPGMIPGSADKELMSTAMKTSELEHIEETMLQDKIDMTDFQRTQADIEDQITRESLISYLNDFEKSKNAPSTSAGAPGPSNFSGEPPVSGSGLYEEMLAAQSLEWDAYTDDVAIAEAMLVSQQDYMSNKPSTSSSGSGPSTSE | not soluble
MTISGISSDQPFIETIDTLMLGGFPVLSTTPSAFVASLYRSLIEERQQRVFFANTNFIVQCQSLRGRMYSERVCILNDGIGMDLAALFIHGRRFVSNLNGTDLIPYLCQHAPRPLRFFLLGAKPGVADMAAQMLCQLGQLVVGTCDGYAQFVATGEDLVESINASGADVLLVALGNPVQERWILDHDVQLRTPLVFGVGALFDFMSGNVRRAPLWVRRVRGEWLYRLLLEPRRLLKRYSWDLLRFFGVCLLRRREGD | not soluble
MTIWLVTRHPGAIEWVARQGIQWDKHAAHLDPCEITAGDTVIGSLPINLAAEICNRGARYFNLSLNLPAHLRGRELDAATLTACEARLEEYIVKKVNS | not soluble
MTIYQHLLILWSSLFASTFAGTAEEVAKHLELGSQFLARAQFADALTQYHAAIELDPKSYQAIYRRATTYLAMGRGKAAIVDLERVLELKPDFYGARIQRGNILLKQGELEAAEADFNIVLNHDSSNNDVQEKTALIEQHRQLRHQIKSAYAGGDCATVEEYINHIIEIQVWDASLYRMRAKCLEERGELKKAIHDMRIVSKLSTDSTDTMFETSKLLYTVGDLEESLNVIRECLKLNPDHKSCYPFYKKLRKVVKSLESMKKKVENSDWMACLEEGQKTMKFDPTPSVQLNVFRITNRCQREAGHISEAIAECNEILNDDPSDADILCERAEAHILDEDYDSAIEDYQKATEVNPDHREAKEGLEHAKRLKTQAGKRDYYKILGVKRNASKREITKAYRKLAQKWHPDNFSDEEEKKKAEKKFIDIAAAKEVLQDEEKRRQFDQGVDPLDPEAQRQGGGHHGGFGHGFPHGFHHFGGGGGGEHSFKFNWG | not soluble
MTKCPKCKKIMLTKELDKNMRVCMNCDYHFPMNAKQRIESLMDEQSFEEFNQGMLSENPLGFPGYLEKLEKDREKTSLNEAVVTGKGTIGGHPAVVAVMDSSFRMGSMGSVVGEKITLAIEKAKADKVPFIIFTASGGARMQEGVLSLMQMAKTSSALKLFSEEQGLIISVMTHPTTGGVSASFASLGDYNFAEPGALIGFAGRRIIEQTIGEKLPEDFQTAEFLLKHGQLDAVIHRDDMKKTLENLLDMHQTGGDIEWLQDLEHHHHHH | not soluble
MTKKHREGLSLRAFAKKMRVSPNAVVSRFKTGKFDQALFEDGSVNEALATAIWNENPTKRPAPFLAPDGQPRTKIKQVSTEGANEYEIKLERMQVALESEKIALERLRETTVDREEVKRAAREFGRAHRDAMLNFPHRFGASIAAQVGCDAASLIGAIDYYIRKALLEAVHIPVPFHDPHSPELENLQETNNG | not soluble
MTKKRVALIFGGNSSEHDVSKRSAQNFYNAIEATGKYEIIVFAIAQNGFFLDTESSKKILALEDEQPIVDAFMKTVDASDPLARIHALKSAGDFDIFFPVVHGNLGEDGTLQGLFKLLDKPYVGAPLRGHAVSFDKALTKELLTVNGIRNTKYIVVDPESANNWSWDKIVAELGNIVFVKAANQGSSVGISRVTNAEEYTEALSDSFQYDYKVLIEEAVNGARELEVGVIGNDQPLVSEIGAHTVPNQGSGDGWYDYNNKFVDNSAVHFQIPAQLSPEVTKEVKQMALDAYKVLNLRGEARMDFLLDENNVPYLGEPNTLPGFTNMSLFKRLWDYSDINNAKLVDMLIDYGFEDFAQNKKLSYSFVSLGEEKIGKFN | soluble
MTKLALFVRLEAKPGQEAALADFLASALPLANAESGTTAWFALKFGPSTFGVFDAFADEAGRQAHLNGQIAAALMANAATLLSSPPNIEKVELLAAKLPA | soluble
MTKYIFVTGGVVSSLGKGITAASLGRLLKNRGLNVTIQKFDPYINVDPGTMSPYQHGEVFVTDDGAETDLDLGHYERFIDINLNKYSNVTTGKIYSSVLQKERRGEYLGGTVQVIPHITNEIKERVYRSGRETNADVVITEIGGTVGDIESLPFLEAIRQIKSDIGRDNVMYIHCTLIPYLKAAGEMKTKPTQHSVKELRSLGIQPNIIVVRTEMPVSQDMKDKLALFCDIDTKAVIEARDADTLYAVPLSLQEQNMDQIVCDHLKLDNPAADMTEWTALVEKVRNLSKKTKIALVGKYVELQDAYISVVEALRHAGYSFDTDVEVKWVNAEHVTAENVQELVGDTDGILVPGGFGDRGVEGKIVAIQYARENKVPFLGICLGMQLASIEFARNVLGLEGANSSEINPDTPYAIIDLLPEQKDVEDLGGTLRLGLYPCKLSEETNAYNAYNEPVVYERHRHRYEFNNQFRPDMEKAGFVFSGTSPDGRLVEIIELKDHPWFVAAQFHPELVSRPNRPQPLFHDFVKASLTNKESK | not soluble
MTLIDCCDPQKPSRVLFHFLILDAPSPSNLPTYIKELQHRGVRHLVRVCGPTYDATLVKSRGIDVHSWPFDDGAPPTRAVLDSWLKLLDTELARQQEDPSVPPPTIGVHCVAGLGRAPILVALALVEYGNVSALDAIALIREKRKGAINQTQMHWITKYKR | not soluble
MTLIPPVQAIAGTSAAATQALSPVATPNQALVNRFQALMQSSSPLPPAMQRVGNPSMMSRVVDVQNDGVRTIAEHIDAFSMQAPTMGLQEMAAQQIKLMHELTMVGFNLNVSVGVAQSGKNAVQTLVKNQ | not soluble
MTLNAFIEKLSTQPELIEFTETMAVIESHYEFTPTEFANGNTVNLADQNNGSCKIFAFALLNQLSVDQTLACFGQYYRQDVLENPQGDDHQNIRNFMVTGWAGVQFKAQALQAK | not soluble
MTLNDKYPFTDEDQAIINSYKAVVDGVSALIGEHCEIVLHSLENIEHSAICIANGHNTNRQVGSPITDLALRSLRNMQSESVSKPYFTRAKGSVLMKSVTIAIRNKTQRIIGLLCININLDVPVSQFLQCFMLTEHTNETSSVNFANSVEDLVAQTIEKTIEEVNADRAVANNTKNRQIVLSLYEKGIFDIKDAINLVAERLDISRHTVYLYIRQIKQEQE | not soluble
MTLNITSKQMDITPAIREHLEERLAKLGKWQTQLISPHFVLNKVPNGFSVEASIGTPLGNLLASATSDDMYKAINEVEEKLERQLNKLQHKSESRRADERLKDSFEN | soluble
MTLNSLPLLRMGTVPLASRISTPLSLRLVSLSLERIRCAGTLRAPFPLPLYFSPGEQPLLHMALPLAARQHFLEHGYAIVPNVLSSSVVERIRSAALASTTARFRSFAHLPNVHSLLKSTPKCTDPLQDGLMSHLQKRRYILRYYRDMRRHKRRLRRAAKAFLNGRDVSELGREDMLRLSEMVCAEAQKVWSRGCTSTVKTDLQMLTAINQYRANAWMTNAQLEAVLRDNEEFVKPLSQLAEVVGGVARPVIFGDVPLLREAYGNPVGYHCLAPTIGTRTNARVSKGGGEATAVSMVLFTYTPTPLCLPPFVLRNSQHAVRRQYLHSVHAERLWRPFAPMEADIRDQLRRFQFDASVVGQPLLAAMAGPSSTPAAPVIGPGTVMVVDPHLMMAFGGNMTPQSEVLYRINVVAENARPHLMAPSWIRGWRTMPEEVHFASPVVFPPLYVE | not soluble
MTMDFQITRRYPCSYLPGELARSRIVVTDDTLSDSNTYAQLIQQGYRRSGSLIYRPDCDYCHACIPVRIPVELFDPNRTQRRIWKRHQHLQIAWHPLHFDPVHFDLYQRYQKSRHTNGSMDQDDENGRKQYRDFLLKSTVDSFLVTFHENEQLRMVSIIDRLPDGLSPVYTFFEPDVPGSSYGTFNILWQTAQCRADRLPYLYLGYWIANSRKMHYKANFQPLQYLIDNQWQYRTTNRLEHHHHHH | not soluble
MTMLLSIIVPTFKPQKTYFEECLFSLFNQTMFHYLYEVIVVLNGDIDTQYTDMILDIFAYKPAGLYCRLIKTDQAGVSNARNLGIDAAKGQYIGFVDDDDIVSSDYLEELCKISSRNIVGVSNVHTFRKTIEEKEDNFFACRIIQQRECQYSLFRNRAILAFPVAKLIHRDIIGNRRFNPRFKNGEDALFMTEISDLIGGFRFTKEYTTYYVRERAGSASRRPLKRGQLCWDTFMLIKAYVSIYLSSPFSYNFLLFASRIPGSIKGAIKLSRNTAFFLEHHHHHH | not soluble
MTMRTYKNPYPDSEDAVEIRFDHCREDIAKAAQEYWREMTEAELDDLQEEIMRALAVSEWQNIWLTSAAFITVLAYHFHD | not soluble
MTNEAIQNREPFLQNLREKLDVEKQPVSAHPFEPVNHLPEEQLADKTPAELLTIVKERVETIHTNLVETTQENLLTTIQQIVAEFGGDNLLLPTDARFEAYGLADLAKSLEAVSVKQWQPGSEQREANIQTAAQANIAIAFAEFLLAESGTIVVESNAGQGRALHFLPKHYISIIPFSKLVPRSTQPAAFYTEKIEKGEKIGSAIHFISGPSNSGDIEMQLVVGLHGPLEVCYVVVMDR | not soluble
MTNQKQTTHFGFKSVDWNEKEKKVAEVFHSVAKNYDRMNDLMSLGIHHLWKRYTIELSHVRPGQSVLDLAGGSGDLTRLLLQKVGDSGQVILADINAAMLHVGRDRLLDEGLFKNIRYVQGNAQCLPFADNSFHCITMGFGLRNVTDKDEALQSMYRVCKPGGKLMVLEFSTPVFPGLKPVYDWYSFNILPKIGKFVANDEASYQYLAESIRMHPDQETLKAMIERVGFEDCHYHNLSGGIVALHIAYKYLEHHHHHH | not soluble
MTNSNDIDETAATIDTARALLKSFGFEAQRHNVRSAVTLLALAGLKPGDHWADSTTPRLGVQKIMDWSGAYWAKPYATGSREDFRKKTLRQWVDNGFAVLNPDNLNIATNSQLNEYCLSDEAAQAIRSYGTDAFESALVDFLSKASDTVRARAEALRAAMISVDLADGDEFLLSPAGQNPLLKKMVEEFMPRFAPGAKVLYIGDTRGKHTRFEKRIFEETLGLTFDPHGRMPDLVLHDKVRKWLFLMEAVKSKGPFDEERHRTLRELFATPVAGLVFVNCFENREAMRQWLPELAWETEAWVADDPDHLIHLNGSRFLGPYER | soluble
